# Test: yeast display, Sf9 membrane polyspecificity reagent, FACS + sequencing; frameworks hold sequencing errors
# How it was run: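 Nanobodies came from a synthetic yeast display library in Saccharomyces cerevisiae BJ5465, induced with galactose for 36–48 hours and stained for 1 hour at 4 °C with 10% biotinylated, detergent-solubilized Sf9 membrane reagent. Cells were enriched on streptavidin microbeads and then FACS-sorted, with low and high (top ~1%) gates set on anti-HA fluorescence for expression and streptavidin fluorescence for reagent binding. Each polyreactivity label reflects the gate a clone came from. Genes were amplified by colony PCR, sequenced by MiSeq 2 × 250 and filtered by CDR length.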
row,Sequence,polyreactivity (PSR sort gate)
1,QVQLVESGGGLVQAGGSLRLSCAASGSTFTKYTMGWYRQAPGKERELVAAITSSGGSTYYADSVKGRFTISRDNAKNTVYLQMNSLKPEDTAVFYCAAPALYYYYYYGYDYWGQGTQVTVSS,high polyreactivity
2,QVQLVESGGGLVQAGGSLRLSCAASGSTFTLNAMGWYRQAPGKERELVADISWSSGRTYYADSVKGRFTISRDNAKNTVYLQMNSLKPEDTAVYYCATYDFWNVKFYAYYPEFDYWGQGTQVTVSS,low polyreactivity
3,QVQLVESGGGLVQAGGSLRLSCAASGSTFTLYAMGGYIQAPGKERELVAAITSDDSTYYADSVKGRFTISRDNAKNTVYLQMNSLKPEDTAVYYCAADVYYGDFEMDYWGQGTQVTVSS,low polyreactivity
4,QVQLVESGGGLVQAGGSLRLSCAASGSTFTLYAMGWYRKAPGKERELVAAISRSGGRTYYADSVKGRFTISRDNAKNTVYLQMNSLKPEDTAVYYCNAPYKQDYDYWGQGTQVTVSS,high polyreactivity
5,QVQLVESGGGLVQAGGSLRLSCAASGSTFTLYAMGWYRQAPGKERELVAAISGIGDSTYYADSVKGRFTISRDYAKNNVYLQKNSLKPEDTAVYYCAADGEYRYDWEYESWGQGTHVTVSS,low polyreactivity
6,QVQLVESGGGLVQAGGSLRLSCAASGSTFTLYAMGWYRQAPGKERELVATITGSGGSTNYADSVKGRFTISRDNAKNTVYLQMNSLKPEDTAVYYCAADYAVYSFTDFNYWGQGTQVTVSS,high polyreactivity
7,QVQLVESGGGLVQAGGSLRLSCAASGSTFTLYAMGWYRQAPGKERELVATITGSGGSTNYADSVKGRFTISRDNAKNTVYLQMNSLKPEDTAVYYCAADYAVYSFTEFNYWGQGSQVTVSS,high polyreactivity
8,QVQLVESGGGLVQAGGSLRLSCAASGSTFTNYAMGWYRQAPGKERELVAAINNDRTNYADSVKGRFTISRDNAKNTVYLQMNSLKPEDTAVYYCAAQWRVYGYKISRRNYWGQGTQVTVSS,high polyreactivity
9,QVQLVESGGGLVQAGGSLRLSCAASGSTFTPYAMGWYRQVPGKERELVASITIGGSTYADSVKGRFTISRDNSKNTVYLQMNSLKPEDTAVYYCNADWNWYPFLYSRMDYWGQGTQVTVSS,low polyreactivity
10,QVQLVESGGGLVQAGGSLRLSCAASGSTFTQNAMGWYRQAPGKERELVAAIDRRGGSTYYADSVKGRFTISRDNAKNTVYLQMNSLKPEDTAVYYCAASFSYNRPKRFTHNYEYWGQGTQVTVSS,low polyreactivity
11,QVQLVESGGGLVQAGGSLRLSCAASGSTFTRNPLGWYRQAPGKERELVATISRSGGSTYYADSVKGRFTISRDNAKNTVYLQMNSLKPEDTAVYYCARPYQYYKFYSHDYWGQGTQVTVSS,high polyreactivity
12,QVQLVESGGGLVQAGGSLRLSCAASGSTFTRYAMGWYRQAPGKERELVAAITRSGGGTYYADSVKGRFTISRDNAKNTVYLQMNSLKPEDTAVYYCAKDIVFYGAPGYGYWGQGTQVTVSS,high polyreactivity
13,QVQLVESGGGLVQAGGSLRLSCAASGSTFTRYAMGWYRQAPGTERECVAGITSIGGRTYYADSVKGRFTISRDNAKNTVYLQMNSLKPEDTAVYYCAKRWGRYYYPYDYWGQGTQVTVSS,high polyreactivity
14,QVQLVESGGGLVQAGGSLRLSCAASGSTFTSYTMGWYRQAPGKERELVAAISRGGGRTYYADSVKARFTISRDNAKNTVYLQMYRLNPEDTAVYYCNKVLRGDRAGPGYDHWGLGTQVTVSS,high polyreactivity
15,QVQLVESGGGLVQAGGSLRLSCAASGSTFTTYAMGWYRQAPGKERELVAVITDSGGTYYADSVQGRFTISRDNAKNTVYLQMNSLKPEDTAVYYCNRVFPPTDYEFDSWGQGTQVTVSS,low polyreactivity
16,QVQLVESGGGLVQAGGSLRLSCAASGSTFTTYGMGWYRQAPGKERELVAAISLSSGRTYYADSVKGRFTISRDNAKNTVYLQMNSLKPEDTAVYYCNKRSQKPSQYKPYGYWGQGTQVTVSS,high polyreactivity
17,QVQLVESGGGLVQAGGSLRLSCAASGSTFTWNAMGWYRQAPGKERELVAAISGDGGSTYYADSVKGRFTISRDNAKNTVYLQMNSLKPEDTAVYYCAASSAHIYSYRYNYWGQGTQVTVSS,low polyreactivity
18,QVQLVESGGGLVQAGGSLRLSCAASGSTFTYNAMGWYRQAPGKERELVASISSGTTTYYADSVKGRFTISRDNAKNTVYFQMHSLKPEDTAVYYCAVDSWSRVQGWLAHNYDYWGQGTQVTVSS,low polyreactivity
19,QVQLVESGGGLVQAGGSLRLSCAASGSTFTYYAMGWSRQAPGKERELVAVINKSGGRTNYADSVKGRFTISRDNPKNTVYLQMNSLKPEDTAVYYCNAYYTSFYTGDDYWGQGTQVTVSS,high polyreactivity
20,QVQLVESGGGLVQAGGSLRLSCAASGSTFTYYAMGWSRQEPGIEREFVAAISRRGGSTYYADSVKGRFTISRDNAMNTVYLQMKSLKQEDTPVYYCNVVIYSYGINGRYDYWGQGTQDTVSS,high polyreactivity
21,QVQLVESGGGLVQAGGSLRLSCAASGSTFTYYAMGWYRQAPGKERELVAAITSRGGITYYADSVKGRFTISRDNAKNTVYLQMHSLKPEDTAVYYCNAYSQRYGYYYWGQGTQVTVSS,high polyreactivity
22,QVQLVESGGGLVQAGGSLRLSCAASGSTFTYYTMGWSRQAPGKERELVAASSRTTGSTYYADSVKGRFTISRDNAKNTVYLQMNSLIPEDTAVYYCAAQSYKILLYFIGTAGDGYWGQGTQVTVSS,low polyreactivity

row,Sequence,polyreactivity (PSR sort gate)
1,QVQLVESGGGLVQAGGSLRLSCAASGSTFVAYPMGWYRQAPGKERELVATISSGGNTKYADSVKGRFTISRDNAKNTVYLQMNSVKPEDTAVYYCNAGRYRYRYRSYPYDYWGQGTQVTVSS,high polyreactivity
2,QVQLVESGGGLVQAGGSLRLSCAASGSTFVDNAMGWYRQAPGKERELVAAISRGGSTHYADSVKGRFTISRDNAKNTVYLQMNSLKPEDTAVYYCNKDTKRLLWFYKYYYWGQGTQVTVSS,high polyreactivity
3,QVQLVESGGGLVQAGGSLRLSCAASGSTFVDYAMGRYRQAPGKERELVAAITRSGSSTYYADSVKGRFTISRDIAKNTVYLQMNSLKPEDTAVYYCAAVRYRGLQVKFYYWGQGTQVTVSS,high polyreactivity
4,QVQLVESGGGLVQAGGSLRLSCAASGSTFVDYAMGWYRQAPGKERELVAAISFSDGSTYYADSVKGRFTISRDNAKNTVYLQMNSLKPEDTAVYYCAKDAYWGYRWYTYDYWGQGTQVTVSS,low polyreactivity
5,QVQLVESGGGLVQAGGSLRLSCAASGSTFVENAMGWYRQAPGKEREVVAAISSSGDSTFYADSVKGRFTISRDNAKNTVYLQMKSLKPEDTAVYYCAADRRINYDGLDMDYWGQGTQVTVSS,low polyreactivity
6,QVQLVESGGGLVQAGGSLRLSCAASGSTFVENAMGWYRQAPGKQRELVAAISSSGDSTFYADSEKGRFTISRDNAKNTVYLQMNSLIPEDTAVYYCAADRRINYDGLDMDYWGQGTQVTVSS,low polyreactivity
7,QVQLVESGGGLVQAGGSLRLSCAASGSTFVGNAMGWYRHAPGKEREMVATISNSGGRTYYADSVKGRFTISRDNAKNTVYLQLNSLKPEDTEVYYCAADHPAFGPGYSFDYWGQGTQVTVSS,low polyreactivity
8,QVQLVESGGGLVQAGGSLRLSCAASGSTFVGNAMGWYRQAPGKERELVAAITGGGGSTNYADSVKGRFTISRDNAKNTVYLQMNSLKPEDTAVYYCAVEVYYTGFYYSPYAYDYWGQGTQVTVSS,low polyreactivity
9,QVQLVESGGGLVQAGGSLRLSCAASGSTFVGNAMGWYRQAPGKERELVANITSGGSTNYADSVKGRFTISRDNAKNTVYLQMNSLKPEDTAVYYCAAVYLWSQRREYWGQGTQVTVSS,low polyreactivity
10,QVQLVESGGGLVQAGGSLRLSCAASGSTFVGNAMGWYRQAPGKERELVATMSNSGGRTYYADSVKGRFTISRDNAKNSVYLQMNSLKPEDTAVYFCNAQFDLTFRGTGDYWGQGTQVTVSS,low polyreactivity
11,QVQLVESGGGLVQAGGSLRLSCAASGSTFVGYAMGWYRQAPGKERELVAAISRSGGRTYYADSVKGRFTISRDNAKNTVYLQMNSLKPEETAVYYCYPYYIASTFDYWGQGTQVTVSS,high polyreactivity
12,QVQLVESGGGLVQAGGSLRLSCAASGSTFVGYAMGWYRQAPGKERELVADIDSIGGSTYYADSVKGRFTISRDNAKNTVYLQMNSLKPEDTAVYYCAAYQHPGLRTSYEYWGQGTQVTVSS,low polyreactivity
13,QVQLVESGGGLVQAGGSLRLSCAASGSTFVGYAMGWYRQAPGKERELVADITWSGTNTYYADSVKGRFTISRDNAKNTVYLQMNSLKPEDTAVYYCAAELELLLVGFFTYRREYWGQGTQVTVSS,low polyreactivity
14,QVQLVESGGGLVQAGGSLRLSCAASGSTFVGYTMGWYIQAPGKERELVAAISRGGGSTYYADSVKGRFTISRDNAKNTVYLQMNSLKPEDTAVYYCAATGFYARLSSIYYYWGQGTQVTVSS,high polyreactivity
15,QVQLVESGGGLVQAGGSLRLSCAASGSTFVGYVMGWSRQAPGKERELVAAITRSGTSTYYADSVKGRFTISRDNAKNTVYLQMNSLKPEDTAVYYCARRYVSSDYYYWGQGTQVTVSS,low polyreactivity
16,QVQLVESGGGLVQAGGSLRLSCAASGSTFVHNAMGWYRQAPGKERELVAAISESGGGTYYADSVKGRFKISRDNAKNTVYLQMNSQKPEDTAVYYCAAPPAGENWRDGGGYFGQGTQVTVSS,low polyreactivity
17,QVQLVESGGGLVQAGGSLRLSCAASGSTFVHYAMGWYRQAPGKERELVAAITISGGRTYYADSVKGRFTISRDNAKNTVYLQMNSLKAEDTAVYYCNADHYHRTWGYDYWGQGTQVTVSS,low polyreactivity
18,QVQLVESGGGLVQAGGSLRLSCAASGSTFVIYALGWYRQAPGKERELVAALSWSGGRTNYADSVKGRFTISRDNAKNTVYLQLNSLKPEDTAVYYCAAVTGVPYPHGRYKYGYWGQGTQVTVSS,high polyreactivity
19,QVQLVESGGGLVQAGGSLRLSCAASGSTFVKNVMGWYRQAPGKERELVAGITRGGSTYYADSVKGRFTISRDNAKNTVYLQMNSLKPEDTAVYYCAAARWSQYRTWMNYWGQGTQVTVSS,high polyreactivity
20,QVQLVESGGGLVQAGGSLRLSCAASGSTFVKYVMGWYRQAPGKERELVAAISWSGGSTYYADSVKGRFTISRDNAKNTVYLQMNSLKPEDTAVYYCAAVNWYDSYAKYYWGQGTQVTVSS,high polyreactivity
21,QVQLVESGGGLVQAGGSLRLSCAASGSTFVLYAMGWYIQAPGKERELVAAIDSSGGSTYYADSVKGRFTISRDNAKNTVYVQMNSLKPEDTAVYYCAARFKGLLGYWGQGTQVTVSS,high polyreactivity
